Tests used:
His-AtSUF4 (full length) = His-AtSUF4 (full length) (Arabidopsis thaliana, UniProt Q9C5G0 1-367); assay: EMSA; ITC: 100 mM NaCl, 20 mM Tris-HCl pH 8.0, 25 C, 2 mM protein into 0.1 mM DNA; EMSA: LightShift kit binding buffer, 5 ug protein, 0.02 uM probe, poly(dI-dC), 25 C 30 min, 5% PAGE; details: protein: recombinant; tags: His (pET32a)
His-OsSUF4N = His-OsSUF4N (Oryza sativa, UniProt Q653D5 1-105); assay: as above; details: protein: recombinant; tags: His (pET32a)
OsSUF4 ZF 4m = OsSUF4 ZF 4m (Oryza sativa, UniProt Q653D5 10-100, R18A;K33A;K36A;K43A); assay: ITC; ITC: 100 mM NaCl, 20 mM Tris-HCl pH 8.0, 25 C, 2 mM protein into 0.1 mM DNA; EMSA: LightShift kit binding buffer, 5 ug protein, 0.02 uM probe, poly(dI-dC), 25 C 30 min, 5% PAGE; details: protein: recombinant; tags: pET28-SUMO; Ni column; blunt
OsSUF4 ZF K36A = OsSUF4 ZF K36A (Oryza sativa, UniProt Q653D5 10-100, K36A); assay: as above; details: protein: recombinant; tags: pET28-SUMO; Ni column; blunt
OsSUF4 ZF K31A = OsSUF4 ZF K31A (Oryza sativa, UniProt Q653D5 10-100, K31A); assay: as above; details: protein: recombinant; tags: pET28-SUMO; Ni column; blunt
OsSUF4 ZF K24A = OsSUF4 ZF K24A (Oryza sativa, UniProt Q653D5 10-100, K24A); assay: as above; details: protein: recombinant; tags: pET28-SUMO; Ni column; blunt
OsSUF4 ZF R18A = OsSUF4 ZF R18A (Oryza sativa, UniProt Q653D5 10-100, R18A); assay: as above; details: protein: recombinant; tags: pET28-SUMO; Ni column; blunt
OsSUF4 ZF K43A = OsSUF4 ZF K43A (Oryza sativa, UniProt Q653D5 10-100, K43A); assay: as above; details: protein: recombinant; tags: pET28-SUMO; Ni column; blunt
[1] = target: OsSUF4 zinc finger domain WT (Oryza sativa, UniProt Q653D5 10-100); assay: as above; details: protein: recombinant; tags: pET28-SUMO; Ni column; blunt
OsSUF4 ZF K33A = OsSUF4 ZF K33A (Oryza sativa, UniProt Q653D5 10-100, K33A); assay: as above; details: protein: recombinant; tags: pET28-SUMO; Ni column; blunt
OsSUF4 ZF K33A, sequence (Q653D5 entry or part of it K33A | K33A K33A): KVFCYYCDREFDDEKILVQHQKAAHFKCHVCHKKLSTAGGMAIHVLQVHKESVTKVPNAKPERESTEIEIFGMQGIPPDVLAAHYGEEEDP

His-OsSUF4N, sequence (Q653D5 entry or part of it): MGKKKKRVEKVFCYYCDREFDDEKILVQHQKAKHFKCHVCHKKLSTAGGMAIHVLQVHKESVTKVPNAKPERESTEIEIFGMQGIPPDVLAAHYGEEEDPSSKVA
OsSUF4 ZF K36A, sequence (Q653D5 entry or part of it K36A | K36A K36A): as the sequence (Q653D5 entry or part of it K33A | K33A K33A) above, with A24K, K27A counted along it
OsSUF4 ZF K43A, sequence (Q653D5 entry or part of it K43A | K43A K43A): as the sequence (Q653D5 entry or part of it K33A | K33A K33A) above, with A24K, K34A counted along it
OsSUF4 ZF K24A, sequence (Q653D5 entry or part of it K24A | K24A K24A): as the sequence (Q653D5 entry or part of it K33A | K33A K33A) above, with K15A, A24K counted along it
OsSUF4 ZF 4m, sequence (Q653D5 entry or part of it R18A;K33A;K36A;K43A): as the sequence (Q653D5 entry or part of it K33A | K33A K33A) above, with R9A, K27A, K34A counted along it
OsSUF4 zinc finger domain WT, sequence (Q653D5 entry or part of it): as the sequence (Q653D5 entry or part of it K33A | K33A K33A) above, with A24K counted along it
OsSUF4 ZF R18A, sequence (Q653D5 entry or part of it R18A | R18A R18A): as the sequence (Q653D5 entry or part of it K33A | K33A K33A) above, with R9A, A24K counted along it
OsSUF4 ZF K31A, sequence (Q653D5 entry or part of it K31A | K31A K31A): as the sequence (Q653D5 entry or part of it K33A | K33A K33A) above, with K22A, A24K counted along it
His-AtSUF4 (full length), sequence (Q9C5G0 whole entry): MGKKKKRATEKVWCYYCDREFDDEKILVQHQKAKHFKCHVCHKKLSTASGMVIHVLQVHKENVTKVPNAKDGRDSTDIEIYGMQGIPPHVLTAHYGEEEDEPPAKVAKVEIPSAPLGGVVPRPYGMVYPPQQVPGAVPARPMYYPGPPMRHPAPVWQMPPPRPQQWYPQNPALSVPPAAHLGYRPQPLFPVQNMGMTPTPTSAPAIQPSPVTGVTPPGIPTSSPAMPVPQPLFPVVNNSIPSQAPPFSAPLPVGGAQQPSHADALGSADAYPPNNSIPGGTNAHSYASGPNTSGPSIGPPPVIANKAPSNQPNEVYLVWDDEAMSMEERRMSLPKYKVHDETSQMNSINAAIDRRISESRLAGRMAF

B1: Hd3a-e (Hd3a-WT) (dsDNA)
DNA 1: ACAGTTAACTAACGGTACGGAAATGGTATAAA
DNA 2: TTTATACCATTTCCGTACCGTTAGTTAACTGT
His-AtSUF4 (full length)
  binding result: no binding

B2: Os05g48810 probe (dsDNA)
DNA 1: TATATTCAATGTCGGAAATCATTCCCGTAC
DNA 2: GTACGGGAATGATTTCCGACATTGAATATA
His-OsSUF4N
  binding result: binds

B3: Os09g31486 probe (dsDNA)
DNA 1: CCACCGAAATGACGGAAATGCCCCTGGCCG
DNA 2: CGGCCAGGGGCATTTCCGTCATTTCGGTGG
His-OsSUF4N
  binding result: binds

B4: Os06g06490 probe (dsDNA)
DNA 1: ATATTTTTTCGCGGAAATTCGGTCTTCACT
DNA 2: AGTGAAGACCGAATTTCCGCGAAAAAATAT
His-OsSUF4N
  binding result: binds

B5: Os04g49660 probe (dsDNA)
DNA 1: AGGACTAATTCGGAAATCTCCCCTTCCCGT
DNA 2: ACGGGAAGGGGAGATTTCCGAATTAGTCCT
His-OsSUF4N
  binding result: binds

B6: Os12g01760 probe (dsDNA)
DNA 1: ATCATTTTTTCGGAAATATACAAATGCTGA
DNA 2: TCAGCATTTGTATATTTCCGAAAAAATGAT
His-OsSUF4N
  binding result: binds

B7: ITC 16-bp DNA (dsDNA)
DNA 1: GGGTACGGAAATGGTA
DNA 2: TACCATTTCCGTACCC
OsSUF4 ZF 4m
  binding result: no binding
OsSUF4 ZF K36A
  binding result: no binding
OsSUF4 ZF K31A
  binding result: no binding
OsSUF4 ZF K24A
  binding result: no binding
OsSUF4 ZF R18A
  binding result: no binding
OsSUF4 ZF K43A
  binding result: no binding
[1]
  Kd: 51.3 ± 3.68 µM
OsSUF4 ZF K33A
  binding result: no binding

B8: Os02g08490 probe (dsDNA)
DNA 1: AGACCGTCGATTCGGAAATAAACGGGCCGG
DNA 2: CCGGCCCGTTTATTTCCGAATCGACGGTCT
His-OsSUF4N
  binding result: binds

B9: Hd3a-mu8 (dsDNA)
DNA 1: ACAGTTAACTAACGGCCTAAGGGGGGTATAAA
DNA 2: TTTATACCCCCCTTAGGCCGTTAGTTAACTGT
His-OsSUF4N
  binding result: no binding

B10: RFT1-WT (dsDNA)
DNA 1: AGTATGAGTTTTGGAATCGGAAATATACCGAAC
DNA 2: GTTCGGTATATTTCCGATTCCAAAACTCATACT
His-OsSUF4N
  binding result: binds

B11: Os12g21784 probe (dsDNA)
DNA 1: CTTTCTCTTCGGAAATATAAATATATACCC
DNA 2: GGGTATATATTTATATTTCCGAAGAGAAAG
His-OsSUF4N
  binding result: binds

Source: PMC6611904, “The transcription factor OsSUF4 interacts with SDG725 in promoting H3K36me3 establishment”
